# From publication doi:10.1101/2020.12.12.421834 (bioRxiv, 2020)
# T1: PD1 N-terminal loop-GST fusion protein (Homo sapiens)
# T1 chain: LDSPDRPWNP
# B1: M1-5 anti-PD1 antibody (human IgG4/kappa, C-terminal 6xHis) (antibody, V domains shown)
# VH: QVQLVESGGDVVQPGGSLRLSCTVSGAVFRDLGMEWVRQAPGKGLEWLAVIWYDGGRKHYADSVKGRFTISRDNSRNMLFLQMNGLRVDDTAMYYCTRSHSTDDYWGQGTLVTVSS
# VL: EIVLTQSPATLSVSPGERATLSCRASQSISSDLAWFQQKPGQAPRLIIHGASKRATGIPARFSGSGSGTDFTLTISSLEPEDFAVYYCQQRDSWPLNFGGGTKVEIK
# B2: M1-5 anti-PD1 antibody (human IgG4/k, without C-terminal His tag) (antibody, V domains shown)
# VH: QVQLVESGGDVVQPGGSLRLSCTVSGAVFRDLGMEWVRQAPGKGLEWLAVIWYDGGRKHYADSVKGRFTISRDNSRNMLFLQMNGLRVDDTAMYYCTRSHSTDDYWGQGTLVTVSS
# VL: EIVLTQSPATLSVSPGERATLSCRASQSISSDLAWFQQKPGQAPRLIIHGASKRATGIPARFSGSGSGTDFTLTISSLEPEDFAVYYCQQRDSWPLNFGGGTKVEIK
# B3: M2-1 anti-PD1 antibody (human IgG4/k, without C-terminal His tag) (antibody, V domains shown)
# VH: QVQLVESGGDVVQPGGSLRLSCSASGLVFRDYGMNWVRQAPGKGLEWVGLIWYDGTKKYYSDFVKGRFTISRDNSKNMLYLQMNNLRAEDTAIYYCARFLIGATRRGNAMDYWGQGTSVIVSS
# VL: EVVLTQSPATLSLSPGERATLSCRASQSIDSDLAWSQQKTGQPPRLIIYDASNRATGIPARFSGSGSGTDFTLTISSLEPEDFAVYYCQQRSDWPLTFGGGTKVEIR
# B4: 17D8 anti-PD1 antibody (human IgG4/k, without C-terminal His tag) (antibody, V domains shown)
# VH: QVQLVESGGDVVQPGGSLRLSCAASGVAFSNYGMHWVRQAPGKGLEWVAVIWYDGSNKYYADSVKGRFTISRDNSKNMLYLQMNSLRAEDTAMYYCARNDDYWGQGTLVTVSS
# VL: EIVLTQSPATLSLSPGERATLSCRASQSVSSYLAWYQQKPGQAPRLIIYDASNRATGIPARFSGSGSGTDFTLTISSLEPEDFAVYYCQQRSNWPLTFGGGTKVEIK
# B5: M2-1 anti-PD1 antibody (human IgG4/kappa, C-terminal 6xHis) (antibody, V domains shown)
# VH: QVQLVESGGDVVQPGGSLRLSCSASGLVFRDYGMNWVRQAPGKGLEWVGLIWYDGTKKYYSDFVKGRFTISRDNSKNMLYLQMNNLRAEDTAIYYCARFLIGATRRGNAMDYWGQGTSVIVSS
# VL: EVVLTQSPATLSLSPGERATLSCRASQSIDSDLAWSQQKTGQPPRLIIYDASNRATGIPARFSGSGSGTDFTLTISSLEPEDFAVYYCQQRSDWPLTFGGGTKVEIR
# B6: M2-3 anti-PD1 antibody (human IgG4/kappa, C-terminal 6xHis) (antibody, V domains shown)
# VH: QGHLVESGGDVVLPGGSLRLSCTESGVDLSDFGIHWVRQTPGKGLEWVALIWYDGSKKFYADSVKDRFTISRDNSKNMVYLEMISLRVEDTAMYFCARGIRRGPWFTYWGPGTLVTVST
# VL: EIVLTQSPVILSLSPGERATLSCRASQSISSDLAWFQQTPGQAPRLIIYDASNRATGIPARFSGSGSGTDFTLTISSLEPEDFAVYYCQQRSNWPLTFGGGTKVEIK
# B7: 17D8 anti-PD1 antibody (human IgG4/kappa, C-terminal 6xHis) (antibody, V domains shown)
# VH: QVQLVESGGDVVQPGGSLRLSCAASGVAFSNYGMHWVRQAPGKGLEWVAVIWYDGSNKYYADSVKGRFTISRDNSKNMLYLQMNSLRAEDTAMYYCARNDDYWGQGTLVTVSS
# VL: EIVLTQSPATLSLSPGERATLSCRASQSVSSYLAWYQQKPGQAPRLIIYDASNRATGIPARFSGSGSGTDFTLTISSLEPEDFAVYYCQQRSNWPLTFGGGTKVEIK
# B8: M1-1 anti-PD1 antibody (human IgG4/kappa, C-terminal 6xHis) (antibody, V domains shown)
# VH: QVQLVESGGDVVQPGGSLRLSCAASGVAFRDYGMHWVRQAPGKGLEWVAVIWYDGSKKYYGDSVKGRFTVSRDNSKNMLYLEMNGLKAEDTAMYYCARNDDYWGQGTLVTVSS
# VL: EIVLTQSPATLSLSPGERATLSCRASQSVSNSLSWYQQNPGQSPRLIIYDTSKRATGIPARFSGSGSGTDFTLTINNLETEDFAVYYCHQRSDWPLTFGGGTKVEIK
# B9: M1-3 anti-PD1 antibody (human IgG4/kappa, C-terminal 6xHis) (antibody, V domains shown)
# VH: QEWLVESGGDVVQPGGSLRLSCATSKVTFNDFGIHWVRQAPGKGLEWVAIIWYDGSRNHYADSVRGRFTLSRDNSKNMVHLHMSSLRTEDTAMYYCARGIHSNDDYWGQGTMVTVSS
# VL: EIVLTQSPATLSLSPGERATLSCRTSQSVSSDLAWFQQKPGQAPRLFIFDASKRVNGIPARFSGSGSGTDFTLTISSLEPEDFAVYYCQQRTDWPLTFGGGSRVEIK
# B10: M1-4 anti-PD1 antibody (human IgG4/kappa, C-terminal 6xHis) (antibody, V domains shown)
# VH: QVQLVESGGDVVQPGGSLRLSCAVSGVTFGDFGFEWVRQAPGKGLEWVAVIWYDGSRKHYAESVRGRFTISRDNSRNMMYLEMTGLRVEDTAKYYCTRSHSHEDYWGQGTLVTVSS
# VL: EIVLTQSPATLSLSPGERATLSCRASQSISNYLAWFQQKSGQAPRLIIHDAFKRAAGIPTRFSGSGSGTDFTLTISSLEPEDFAVYYCQQRDNWPLNFGGGTKVEIK
# B11: M1-6 anti-PD1 antibody (human IgG4/kappa, C-terminal 6xHis) (antibody, V domains shown)
# VH: QVQLVESGGDVVQSGGSLRLSCAVSGVVFSDYGFEWVRQAPGKGLEWVAVIWYDGSRKHYADSVQGRFTISRDNFRNMLYLQMTGLRVEDTAKYYCTRSHSHEDYWGQGTLVTVSS
# VL: EIVLTQSPATLSLSPGERATLSCGASQNIDNSLAWFQQKPGQAPRLIIYDASKRATGIPARFSGSGSGTDFTLTISTLEPEDFAVYYCQQRDHWPLNFGGGTKVEVK
# B12: M2-2 anti-PD1 antibody (human IgG4/kappa, C-terminal 6xHis) (antibody, V domains shown)
# VH: QVQLVESGGDVVQPGGSLRLSCSASGLVISDYGMNWVRQAPGKGLEWVGLIWYDGSKKYYSDFVKGRFTISRDNSKNILYLQMNNLRAEDTAMYYCARFLIGATRRGNAMDYWGQGTSVTVSS
# VL: EVVLTQSPATLSLSPGERATLSCRASQSIDSDLAWSQQKPGQPPRLIIYDASNRATGIPARFSGSGSGTDFTLTISSLEPEDFAVYYCQQRSDWPLTFGGGTKVEIR
# B13: M2-4 anti-PD1 antibody (human IgG4/kappa, C-terminal 6xHis) (antibody, V domains shown)
# VH: QVQLVESGGDVVQPGGSLRLSCAASGVAFRNYGMHWVRQAPGKGLEWVAIIWYDGSNKYYADSVKGRFTISRDNSKNMLYLQMNSLRAEDTAMYYCARLSIGTTHYFDTDDYWGQGTSVTVSS
# VL: EIVLTQSPATLSLSPGERATLSCRASQSVSSYLAWYQQKVGQAPRLIIFDASNRATGIPARFSGSGSGTDFTLTITSLDPEDFAVYYCQQRSAWPLTFGGGTKVEIR
# B14: M2-5 anti-PD1 antibody (human IgG4/kappa, C-terminal 6xHis) (antibody, V domains shown)
# VH: QVQLVESGGDVVQPGGSLRLSCAASGVVFSDYGLYWVRQAPGKGLEWVALIWYDGSKKFYADSVKGRFSISRDNSKNMLYLQMNNLRADDSAIYYCSRGIRQGPWFAYWGQGTRVTVSP
# VL: EIVLTQSPATLSLSPGERATLSCRASQSISSDLTWFQQKPGQAPRLIIYDASNRATGIPARFSGSGSGTDFTLTISSLEPEDFVVYYCLQRSDWPLTFGGGTKVEIK
# B15: M1-7 anti-PD1 antibody (human IgG4/kappa, C-terminal 6xHis) (antibody, V domains shown)
# VH: QLQLVESGGDVVQPGGSLRLSCAASGVVFSDFGLEWVRQAPGKGLEWLAVIWYDGSRKHYADSVKGRFTISRDNSKNMLYLQMNSLRVEDTAMYYCARCHSKEDYWGQGTLVTVSS
# VL: EIEVTQSPATLSLSPGERATLSCRASQSIDTDLAWFQQRPGQTPRLIIYDASKRATGIPARFSGGGSGTDFTLTISSLEPEDFAVYYCQQRTTWPLTFGGGTKVEIK
# B16: M1-2 anti-PD1 antibody (human IgG4/kappa, C-terminal 6xHis) (antibody, V domains shown)
# VH: QVQLVESGGDVVQPGGSLRLSCAASGVAFSDYGMEWVRQAPGKGLEWLAVIWYDGSRKHYADSVKGRFTISRDNSKNILYLQMNSLRAEDTAMYYCARCHSKDDYWGQGTLVTVSS
# VL: EIVLTQFPATLSLSPGERATLSCRTSQNIDSDLAWFQQKPGQAPRLIIYDASNRATGIPARFSGGGSGTDFTLTITSLEPEDFAVYYCQQRTTWPLTFGGGTKVEIK
# Assays:
# [1] = molecular target: T1, PD1 N-terminal loop-GST fusion protein; experiment: ELISA
# [2] = molecular target: T2, PD1 extracellular domain, without Fc fusion (Homo sapiens, UniProt Q15116); experiment: ELISA
# [3] = molecular target: full-length human PD1 expressed on the surface of NS1 cells (human, UniProt Q15116); experiment: flow cytometry on cells
# [4] = molecular target: T2, PD1 extracellular domain, without Fc …; experiment: SPR
# T2 sequence (Q15116 25-170): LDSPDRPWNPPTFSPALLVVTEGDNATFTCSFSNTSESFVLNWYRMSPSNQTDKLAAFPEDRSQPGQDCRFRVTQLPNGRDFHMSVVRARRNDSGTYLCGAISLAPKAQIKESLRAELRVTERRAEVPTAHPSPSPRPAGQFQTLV
# full-length human PD1 expressed on the surface of NS1 cells, sequence (Q15116 25-288): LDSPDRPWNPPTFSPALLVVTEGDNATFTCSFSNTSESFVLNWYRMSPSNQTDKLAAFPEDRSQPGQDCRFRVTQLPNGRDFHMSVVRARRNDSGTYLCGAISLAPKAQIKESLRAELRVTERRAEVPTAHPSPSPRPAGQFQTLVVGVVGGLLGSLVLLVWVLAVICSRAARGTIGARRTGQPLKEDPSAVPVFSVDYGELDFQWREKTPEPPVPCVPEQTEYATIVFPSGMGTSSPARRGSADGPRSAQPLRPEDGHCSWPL
Binder,binding result [1],binding result [2],binding result [3],binding result [4]
B1,binds,binds,binds,–
B2,–,–,–,binds
B3,–,–,–,binds
B4,–,–,–,binds
B5,binds,binds,binds,–
B6,binds,binds,binds,–
B7,–,–,binds,–
B8,binds,–,binds,–
B9,binds,binds,binds,–
B10,binds,binds,binds,–
B11,binds,binds,binds,–
B12,binds,binds,binds,–
B13,binds,–,binds,–
B14,binds,binds,binds,–
B15,–,–,binds,–
B16,no binding,–,binds,–
